Experimental data from PMC12069319, “Transcriptional co-regulator OCA-B/Pou2af1 restricts Th2 differentiation”.

Biological target: Oct1 DNA binding domain (Oct1-DBD);OCA-B (human (from pBabe-hOct1);, UniProt P14859;Q16633 280-438;1-256, |)
Assay: EMSA; OCA-B supershifts Oct1-DBD; EMSA: 0.6X buffer D (1X: 20 mM HEPES, 100 mM KCl, 1 mM DTT), 50 ng/ul poly-dI/dC, 1 ug/ul BSA, on ice 15 min, 6% native PAGE in 0.5X TBE; probe 50 nM (1 nM for)
Conditions: protein: recombinant;recombinant; tags: His (pET28a);C-terminal twinstrep and FLAG; copies: 1;1; blunt

Oct1 DNA binding domain (Oct1-DBD);OCA-B, sequence (P14859 280-438, chain 1 of 2): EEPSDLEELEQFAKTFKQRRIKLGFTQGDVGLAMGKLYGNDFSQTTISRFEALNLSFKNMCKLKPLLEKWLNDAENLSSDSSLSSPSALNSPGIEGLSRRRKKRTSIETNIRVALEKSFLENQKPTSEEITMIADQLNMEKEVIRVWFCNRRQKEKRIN
Oct1 DNA binding domain (Oct1-DBD);OCA-B, sequence (Q16633 whole entry, chain 2 of 2, the tested form may be a part): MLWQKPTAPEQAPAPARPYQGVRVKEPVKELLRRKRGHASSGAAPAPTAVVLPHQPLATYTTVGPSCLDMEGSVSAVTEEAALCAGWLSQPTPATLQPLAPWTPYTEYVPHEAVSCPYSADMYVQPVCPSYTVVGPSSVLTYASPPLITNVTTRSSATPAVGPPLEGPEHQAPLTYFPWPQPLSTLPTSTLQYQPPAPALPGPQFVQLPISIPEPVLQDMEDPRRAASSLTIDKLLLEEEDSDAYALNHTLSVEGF

B1: RHS6-Cy5 (dsDNA)
DNA 1: CACCATGCAAAGGATGTGCGCGGACTCCCTTCCATTTGCTGGCCTCTTATCTGATA
DNA 2: TATCAGATAAGAGGCCAGCAAATGGAAGGGAGTCCGCGCACATCCTTTGCATGGTG
binding result: binds
